Tested on: MDA-MB-231 human breast cancer cells
Experiment: MDA-MB-231 triple-negative breast cancer CDX mouse efficacy model (Example 8)
Assay type: in vivo, NPG mice
Details: for inhibition of growth of MDA-MB-231 breast cancer: 2.5 and 5 mg/kg i.p. BIW, 8 doses, FIG. 8; for relation of anti-tumor effect to administration dose: 2.5 vs 5 mg/kg i.p. BIW; for inhibitory effect on tumor growth compared with 900698 and Oleclumab: antibodies at 5 mg/kg, i.p. BIW
Method: NPG mice were used to establish an MDA-MB-231 triple-negative breast cancer animal model for assaying the efficacy of the test antibodies. The MDA-MB-231 human breast cancer cells used in this example were incubated in an L-15 medium supplemented with 10% FBS in an incubator at 37° C. without CO2. Before continuous cell culturing for ten generations, about 5.0×10^6 MDA-MB-231 cells were suspended in 100 μL of PBS and then mixed uniformly with an equal volume of Matrigel. The mixture was then inoculated by subcutaneous injection into NPG humanized mice on the right side of the back near the axilla, with an inoculation volume of about 200 μL. The mice were anesthetized with 2%-5% isoflurane prior to the inoculation. On the day of inoculation, 1.0×10^7 PBMCs (100 μL) were injected via the tail vein. When the tumors grew to an average size of about 50-80 mm^3, the […] tumor-bearing mice were randomly divided into 7 groups of 6 based on tumor volume and body weight. […] Oleclumab is an anti-CD73 monoclonal antibody developed by AstraZeneca, currently in Phase 2 clinical trials. The amino acid sequence of the heavy chain of 900201 is as set forth in SEQ ID NO. 43, and the amino acid sequence of the light chain of 900201 is as set forth in SEQ ID NO. 44.

B1: Antibody-drug conjugate 1: 900698 antibody cysteine-conjugated to SN-38 via Mc-VC-PAB-DMEDA-PEG linker, DAR about 7.8 (conjugate)
VH: QVQLVESGGGLVKPGGSLRLSCAASGFTFSKYAMSWIRQAPGKGLEWVAEISSGGGYINYADSVKGRFTISRDNAKNSLYLQMNSLRAEDTAVYYCARAIYYYGSSYNYYAMDYWGQGTTVTVSS
VL: DIQMTQSPSSLSASVGDRVTITCRASQDVGTAEAWYQQKPGKAPKLLIYWASTRHTGVPSRFSGSGSGTDFTLTISSLQPEDFATYYCQQYSSYPLTFGQGTKLEIK
inhibition of growth of MDA-MB-231 breast cancer: significantly inhibit the growth | relation of anti-tumor effect to administration dose: positively correlated with the administration dose | inhibitory effect on tumor growth compared with 900698 and Oleclumab: significantly superior

B2: Antibody-drug conjugate 2: 900698 antibody cysteine-conjugated to SN-38 via MP2-VC-PAB-DMEDA-PEG linker, DAR about 7.8 (conjugate)
VH: QVQLVESGGGLVKPGGSLRLSCAASGFTFSKYAMSWIRQAPGKGLEWVAEISSGGGYINYADSVKGRFTISRDNAKNSLYLQMNSLRAEDTAVYYCARAIYYYGSSYNYYAMDYWGQGTTVTVSS
VL: DIQMTQSPSSLSASVGDRVTITCRASQDVGTAEAWYQQKPGKAPKLLIYWASTRHTGVPSRFSGSGSGTDFTLTISSLQPEDFATYYCQQYSSYPLTFGQGTKLEIK
inhibition of growth of MDA-MB-231 breast cancer: significantly inhibit the growth | relation of anti-tumor effect to administration dose: positively correlated with the administration dose | inhibitory effect on tumor growth compared with 900698 and Oleclumab: significantly superior

— patent US20250195679A1, “ANTIBODY-DRUG CONJUGATE AND USE THEREOF” (SHANGHAI HUAOTA BIOPHARMACEUTICAL CO., LTD., priority 2022, published 2025)
